Reference: paper PMC11734722

Key:
[1] = target: α-synuclein monomer (not stated (mouse or human recombinant monomer bought)) (UniProt O55042); experiment: MST
[2] = target: β-synuclein (β-syn) peptide, 36 to 45 amino acids, all D type; experiment: ITC

Kd [1] | Kd [2] | Substance
43.8 µM |  | α-synuclein monomer (from UniProt O55042 1-140) (natural protein)
 | 0.386 µM | α-synuclein preformed fibrils (α-syn PFF) (from UniProt O55042 1-140) (natural protein)
